Test [1] relates to C. albicans cells. In words: Minimal agglutination activity (MAC). The format is cell-based, Candida albicans (ATCC 90028). The note with it: protein tested up to 20 μM. How it is done:
C. albicans cells were grown at 30 °C to an OD592 of 1.0, diluted 10 times, centrifuged at 5000× g for 2 min, and resuspended in 1× PBS. An aliquot of 100 μL of the cellular suspension was treated with increasing peptide concentrations (from 0.01 to 20 μM) and incubated at 30 °C for 1 h. The aggregation behavior was observed by visual inspection, and the agglutinating activity is expressed as the minimum agglutinating concentration of the sample tested, as previously described. Images were taken using a 50× stereoscope microscope.

Test [2] in a line: β-D-Glucan binding assay (supernatant SDS-PAGE). Details: species or system yeast. The settings on record: β-D-Glucan 0.4 mg/mL, 1 μM, PBS, 30 °C, up to 1 h; unbound fraction by SDS-PAGE. The method, then: (§1) C. albicans was cultured overnight in Sabouraud Dextrose broth at 30 °C, sub-cultured the next day and grown to an optical density of 0.4 at 592 nm (mid log-phase). Cells were washed twice in PBS and adjusted to 2 × 10^6 cells/mL. Cells and yeast β-D-Glucan (0.4 mg/mL) (Sigma) were respectively incubated in 100 μL of PBS at 30 °C with proteins and peptides at 1 μM final concentration during different periods of time up to 1 h. Following, the samples were centrifuged at 12,000× g. The supernatant samples were concentrated, and the presence of the proteins and peptides was checked by 15–18% SDS-PAGE and Coomassie Blue staining. Reference protein controls were treated following the same protocol in the absence of cells.

The subject of test [3] is C. albicans cells. In words: Cell binding assay (supernatant SDS-PAGE). The arrangement: species or system Candida albicans (ATCC 90028). The settings on record: 1 μM, PBS, 30 °C, 15, 30 and 60 min; unbound fraction by SDS-PAGE. The method, then:
as §1

B1: hRNase3: human ribonuclease 3 of the RNaseA superfamily, parental protein of RN3 (protein, UniProt P12724 28-160, looked up)
Eosinophil cationic protein: RPPQFTRAQWFAIQHISLNPPRCTIAMRAINNYRWRCKNQNTFLRTTFANVVNVCGNQSIRCPHNRTLNNCHRSRFRVPLLHCDLINPGAQNISNCTYADRPGRRFYVVACDNRDPRDSPRYPVVPVHLDTTI
On to B1, for which the “agglutination of C. albicans by the parental hRNase” value in the test with C. albicans cells [1] was “able to agglutinate C. albicans”. Also, the “binding to main cell wall component (β-D-Glucan)” value in test [2] is given as “positive binding”. In the test with C. albicans cells [3], the “binding to C. albicans cell wall” value is reported as “able to bind to the C. albicans cell wall”.

The record behind these values is publication PMC6770517, “Insight into the Antifungal Mechanism of Action of Human RNase N-terminus Derived Peptides” (International Journal of Molecular Sciences, 2019).
